From PMC11997252

B1: Fzd4: N59/144Q (protein)
parent chain: MAWRGAGPSVPGAPGGVGLSLGLLLQLLLLLGPARGFGDEEERRCDPIRISMCQNLGYNVTKMPNLVGHELQTDAELQLTTFTPLIQYGCSSQLQFFLCSVYVPMCTEKINIPIGPCGGMCLSVKRRCEPVLKEFGFAWPESLNCSKFPPQNDHNHMCMEGPGDEEVPLPHKTPIQPGEECHSVGTNSDQYIWVKRSLNCVLKCGYDAGLYSRSAKEFTDIWMAVWASLCFISTAFTVLTFLIDSSRFSYPERPIIFLSMCYNIYSIAYIVRLTVGRERISCDFEEAAEPVLIQEGLKNTGCAIIFLLMYFFGMASSIWWVILTLTWFLAAGLKWGHEAIEMHSSYFHIAAWAIPAVKTIVILIMRLVDADELTGLCYVGNQNLDALTGFVVAPLFTYLVIGTLFIAAGLVALFKIRSNLQKDGTKTDKLERLMVKIGVFSVLYTVPATCVIACYFYEISNWALFRYSADDSNMAVEMLKIFMSLLVGITSGMWIWSAKTLHTWQKCSNRLVNSGKVKREKRGNGWVKPGKGSETVV
B2: Fzd4: N59Q (protein)
parent chain: MAWRGAGPSVPGAPGGVGLSLGLLLQLLLLLGPARGFGDEEERRCDPIRISMCQNLGYNVTKMPNLVGHELQTDAELQLTTFTPLIQYGCSSQLQFFLCSVYVPMCTEKINIPIGPCGGMCLSVKRRCEPVLKEFGFAWPESLNCSKFPPQNDHNHMCMEGPGDEEVPLPHKTPIQPGEECHSVGTNSDQYIWVKRSLNCVLKCGYDAGLYSRSAKEFTDIWMAVWASLCFISTAFTVLTFLIDSSRFSYPERPIIFLSMCYNIYSIAYIVRLTVGRERISCDFEEAAEPVLIQEGLKNTGCAIIFLLMYFFGMASSIWWVILTLTWFLAAGLKWGHEAIEMHSSYFHIAAWAIPAVKTIVILIMRLVDADELTGLCYVGNQNLDALTGFVVAPLFTYLVIGTLFIAAGLVALFKIRSNLQKDGTKTDKLERLMVKIGVFSVLYTVPATCVIACYFYEISNWALFRYSADDSNMAVEMLKIFMSLLVGITSGMWIWSAKTLHTWQKCSNRLVNSGKVKREKRGNGWVKPGKGSETVV
B3: Fzd4: N144Q (protein)
parent chain: MAWRGAGPSVPGAPGGVGLSLGLLLQLLLLLGPARGFGDEEERRCDPIRISMCQNLGYNVTKMPNLVGHELQTDAELQLTTFTPLIQYGCSSQLQFFLCSVYVPMCTEKINIPIGPCGGMCLSVKRRCEPVLKEFGFAWPESLNCSKFPPQNDHNHMCMEGPGDEEVPLPHKTPIQPGEECHSVGTNSDQYIWVKRSLNCVLKCGYDAGLYSRSAKEFTDIWMAVWASLCFISTAFTVLTFLIDSSRFSYPERPIIFLSMCYNIYSIAYIVRLTVGRERISCDFEEAAEPVLIQEGLKNTGCAIIFLLMYFFGMASSIWWVILTLTWFLAAGLKWGHEAIEMHSSYFHIAAWAIPAVKTIVILIMRLVDADELTGLCYVGNQNLDALTGFVVAPLFTYLVIGTLFIAAGLVALFKIRSNLQKDGTKTDKLERLMVKIGVFSVLYTVPATCVIACYFYEISNWALFRYSADDSNMAVEMLKIFMSLLVGITSGMWIWSAKTLHTWQKCSNRLVNSGKVKREKRGNGWVKPGKGSETVV

Tests used:
Conditions in all cases: glycan lost; control: Fzd4 WT
[1] = cycloheximide chase, Western blot, HEK293T
[2] = surface biotinylation, streptavidin pull-down, HEK293T
[3] = SNAP-tag staining with membrane-impermeant dye
[4] = immunofluorescence co-localisation with ER marker CANX
[5] = plasma membrane fractionation, Western blot

| Protein | degradation_or_half_life [1] | localisation_or_trafficking [2] | localisation_or_trafficking [3] | localisation_or_trafficking [4] | localisation_or_trafficking [5] |
| --- | --- | --- | --- | --- | --- |
| B1 | decreases | abolishes | abolishes | changes | abolishes |
| B2 | decreases | abolishes | abolishes | – | abolishes |
| B3 | decreases | abolishes | abolishes | – | abolishes |
